The source of these data is PMC4242493, “Sequence specificity incompletely defines the genome-wide occupancy of Myc”.

Data set [1] addresses T1, Myc;MaxL (Homo sapiens;Homo sapiens, UniProt P01106-1;P61244 1-439;1-160, |). Briefly: EMSA; 0.01 nM probe; EMSA: 25 mM HEPES pH 7.6, 100 mM KCl, 1 mM DTT, 0.1 mM EDTA, 0.01% Triton, 30 min at room temperature; 6% polyacrylamide gel in 0.5X Tris/glycine. The note with it: protein: recombinant;recombinant, tags: C-terminal His-tag (pET21a);C-terminal His-tag (pET21a), copies: 1;1. On the technique in general: Mobility shift assays separate free from complexed probe on a gel.

The target in data set [2] is MaxL (human? (HeLa cDNA), UniProt P61244 1-160). Kind of data set: EMSA; 0.01 nM probe; MaxL homodimer; EMSA: 25 mM HEPES pH 7.6, 100 mM KCl, 1 mM DTT, 0.1 mM EDTA, 0.01% Triton, 30 min at room temperature; 6% polyacrylamide gel in 0.5X Tris/glycine. The following applies: protein: recombinant; tags: C-terminal His-tag (pET21a); chain copies: 2; unlabeled in silver-stained EMSA.
Sequence of MaxL (P61244 whole entry): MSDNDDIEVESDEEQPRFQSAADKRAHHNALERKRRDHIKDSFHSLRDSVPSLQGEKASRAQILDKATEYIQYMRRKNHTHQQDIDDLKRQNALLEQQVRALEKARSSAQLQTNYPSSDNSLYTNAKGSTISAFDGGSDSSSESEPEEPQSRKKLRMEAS

Data set [3] has as its target T1, Myc;MaxL. Briefly: EMSA; stoichiometric, 125 nM, silver stain; EMSA: 25 mM HEPES pH 7.6, 100 mM KCl, 1 mM DTT, 0.1 mM EDTA, 0.01% Triton, 30 min at room temperature; 6% polyacrylamide gel in 0.5X Tris/glycine. The note with it: protein: recombinant;recombinant; tags: C-terminal His-tag (pET21a);C-terminal His-tag (pET21a); copies: 1;1; label: unlabeled.
Data set [4] deals with Myc;MaxS (human? (HeLa cDNA);human? (HeLa cDNA), UniProt P01106-1;P61244-2 1-439;1-151, |). The data set is described as above. The note with it: protein: recombinant;recombinant; tags: C-terminal His-tag (pET21a);C-terminal His-tag (pET21a); copies: 1;1; label: unlabeled.
Sequence of Myc;MaxS (P01106 16-454, chain 1 of 2): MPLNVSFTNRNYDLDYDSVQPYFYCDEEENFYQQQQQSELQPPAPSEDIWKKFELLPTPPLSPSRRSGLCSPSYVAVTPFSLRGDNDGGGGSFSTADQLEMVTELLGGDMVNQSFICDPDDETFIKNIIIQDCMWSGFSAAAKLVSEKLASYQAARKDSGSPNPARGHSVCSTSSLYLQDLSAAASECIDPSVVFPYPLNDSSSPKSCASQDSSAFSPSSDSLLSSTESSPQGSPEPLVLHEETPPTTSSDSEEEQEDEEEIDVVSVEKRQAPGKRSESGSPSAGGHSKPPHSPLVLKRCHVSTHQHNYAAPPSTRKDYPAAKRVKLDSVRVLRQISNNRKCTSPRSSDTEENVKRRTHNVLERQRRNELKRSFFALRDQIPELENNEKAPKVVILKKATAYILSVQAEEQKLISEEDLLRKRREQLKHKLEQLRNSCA
Sequence of Myc;MaxS (P61244 other isoform, or with tags, fused parts or gaps |, chain 2 of 2): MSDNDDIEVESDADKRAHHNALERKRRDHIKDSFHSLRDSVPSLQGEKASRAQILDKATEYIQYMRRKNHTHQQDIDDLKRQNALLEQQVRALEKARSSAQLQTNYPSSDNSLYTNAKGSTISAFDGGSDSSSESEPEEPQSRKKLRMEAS

The term Kd denotes a measure of binding affinity in units of concentration.

T1 sequence (P01106 16-454, chain 1 of 2): as the sequence (P01106 16-454, chain 1 of 2) above
T1 sequence (P61244 whole entry, chain 2 of 2): as the sequence (P61244 whole entry) above

B1: CACGTG probe (26 bp) (dsDNA)
DNA 1: GAGGGATCGGCACGTGGGATCGGAGG
DNA 2: CCTCCGATCCCACGTGCCGATCCCTC
In the case of B1, the Kd in data set [1] (unlabeled in silver-stained EMSA) came to 0.1 nM; in data set [2], 0.4 nM.

B2: GTGGTG probe (26 bp) (dsDNA)
DNA 1: GAGGGATCGGGTGGTGGGATCGGAGG
DNA 2: CCTCCGATCCCACCACCCGATCCCTC
On to B2, for which the binding result in data set [3] and in data set [4] was “binds” throughout.

B3: ATCTAG probe (26 bp) (dsDNA)
DNA 1: GAGGGATCGGATCTAGGGATCGGAGG
DNA 2: CCTCCGATCCCTAGATCCGATCCCTC
On to B3, for which the Kd in data set [1] (label: 32P 5' end-labeled on both strands (Kd)) stood at 20 nM.
